Experimental data published in paper PMC3137622.
Where a chain is given by its changes, count along the chain named. Names may count otherwise.

Columns and labels:
[1] = biological target: monoclonal antibody 7C11 (anti-Bla g 2); assay: competition ELISA; conditions: chain shown with the change, solid phase rBla g 2-N93Q, read off a plot
[2] = biological target: monoclonal antibody 7C11 (anti-Bla g 2); assay: ELISA dose-response; conditions: chain shown with the change, read off a plot
[3] = competitor concentration 0.1 µg/ml, parent: est. 47
[4] = competitor concentration 1 µg/ml, parent: est. 5
[5] = competitor concentration 100 µg/ml, parent: est. 0
[6] = allergen concentration 100 ng/ml (read on the curve line), parent: est. 1.8
[7] = competitor concentration 10 µg/ml, parent: est. 1

monoclonal antibody 7C11 (anti-Bla g 2), sequence (chain, as listed by the source, chain 2 of 2, other chains not shown): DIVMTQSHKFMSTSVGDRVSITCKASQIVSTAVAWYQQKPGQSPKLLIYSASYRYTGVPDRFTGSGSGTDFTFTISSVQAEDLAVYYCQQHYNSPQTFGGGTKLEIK

B1: recombinant Bla g 2-N93Q D68aA (protein)
chain: VPLYKLVHVFINTQYAGITKIGNQNFLTVFDSTSCNVVVASQECVGGACVCPNLQKYEKLKPKYISAGNVQVKFFDTGSAVGRGIEDSLTISQLTTSQQDIVLADELSQEVCILSADVVVGIAAPGCPNALKGKTVLENFVEENLIAPVFSIHHARFQDGEHFGEIIFGGSDWKYVDGEFTYVPLVGDDSWKFRLDGVKIGDTTVAPAGTQAIIDTSKAIIVGPKAYVNPINEAIGCVVEKTTTRRICKLDCSKIPSLPDVTFVINGRNFNISSQYYIQQNGNLCYSGFQPCGHSDHFFIGDFFVDHYYSEFNWENKTMGFGRSVESV
B1 showed an other: Biotinylated mAb 7C11 bound to Bla g 2 (%) [1, 3] of 98%, an other: Biotinylated mAb 7C11 bound to Bla g 2 (%) [1, 4] of 82% and an other: Biotinylated mAb 7C11 bound to Bla g 2 (%) [1, 5] of 5%. It also gave a response (Absorbance (405 nm)) [2, 6] of 0.48 and a response (Absorbance (405 nm)) ([2]; allergen concentration about 4000 ng/ml (highest point of the series; curve at plateau)) of 0.73.

B2: recombinant Bla g 2-N93Q K132A (protein)
chain: B1 chain with A67D, K132A
With B2 the other: Biotinylated mAb 7C11 bound to Bla g 2 (%) [1, 3] was 100%, the other: Biotinylated mAb 7C11 bound to Bla g 2 (%) [1, 4] was 100% and the other: Biotinylated mAb 7C11 bound to Bla g 2 (%) [1, 7] was 99%. It also gave an other: Biotinylated mAb 7C11 bound to Bla g 2 (%) [1, 5] of 70%, a response (Absorbance (405 nm)) ([2]; allergen concentration 100 ng/ml, parent: est. 1.8) of 0.12 and a response (Absorbance (405 nm)) ([2]; allergen concentration about 400 ng/ml (highest point of the series), parent: est. 1.8) of 0.15.

B3: recombinant Bla g 2-N93Q K65A (protein)
chain: B1 chain with K63A, A67D
B3 showed an other: Biotinylated mAb 7C11 bound to Bla g 2 (%) [1, 3] of 91%, an other: Biotinylated mAb 7C11 bound to Bla g 2 (%) [1, 4] of 47% and an other: Biotinylated mAb 7C11 bound to Bla g 2 (%) [1, 7] of 11%. It also gave a response (Absorbance (405 nm)) [2, 6] of 0.3 and a response (Absorbance (405 nm)) ([2]; allergen concentration about 4000 ng/ml (highest point of the series)) of 1.2.
